Values quoted from earlier work as cited in article PMC4624693.

Legend:
Asp11 = Asp11 (UniProt position 987, CPSSYDGYCLN); assay: NMR; details: free, folded protein
Asp27 = Asp27 (UniProt position 1003, HIESLDSYTCN); assay: NMR; details: free, folded protein
Asp40 = Asp40 (UniProt position 1016, IGYSGDRCQTR); assay: NMR; details: free, folded protein
Asp46 = Asp46 (UniProt position 1022, RCQTRDLRWWE); assay: NMR; details: free, folded protein
Cterm53 = Cterm53 (UniProt position 1029, RWWELRHAGYG); assay: NMR; details: free, folded protein
Glu24 = Glu24 (UniProt position 1000, VCMHIESLDSY); assay: NMR; details: free, folded protein
Glu51 = Glu51 (UniProt position 1027, DLRWWELRHAG); assay: NMR; details: free, folded protein
His22 = His22 (UniProt position 998, GGVCMHIESLD); assay: NMR; details: free, folded protein
Nterm1 = Nterm1 (UniProt position 977, HHLDRNSYPGC); assay: NMR; details: free, folded protein
Lys66 = Lys66 (UniProt position 148, FTKKMKENAKK)
Asp = details: free peptide

## Epidermal growth factor (mouse EGF) (Mus musculus)
Asp11
  pKa: 3.9±0.05
Asp27
  pKa: 4.0±0.1
Asp40
  pKa: 3.6±0.1
Asp46
  pKa: 3.8±0.1
Cterm53
  pKa: 3.5±0.1
Glu24
  pKa: 4.1±0.1
Glu51
  pKa: ~4
His22
  pKa: 6.8±0.1
Nterm1
  pKa: 7.7±0.1

## Staphylococcal nuclease Delta+PHS/V66K (Staphylococcus aureus; V66K; Delta+PHS background (substitutions not listed in the article))
Lys66
  pKa: 5.6

## SDNKTYG
Asp
  pKa: 3.6
